Experimental findings from article PMC11862924, “Phenylpyrazoles as Inhibitors of the m6A RNA-Binding Protein YTHDF2” are described below.

The target of one data set is T1, YTHDC2 YTH domain (UniProt Q9H6S0 1285-1424).
T1 sequence: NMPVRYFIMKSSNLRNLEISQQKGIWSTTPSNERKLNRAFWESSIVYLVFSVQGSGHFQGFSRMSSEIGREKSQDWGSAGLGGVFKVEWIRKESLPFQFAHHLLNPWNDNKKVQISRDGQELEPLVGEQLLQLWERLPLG
To be noted: protein: recombinant.

For the next data set, the target named is YTHDC1 YTH domain (UniProt Q96MU7 345-509). In words: EMSA; 20 nM RNA; FP: 20 mM HEPES/KOH pH 7.5, 50 mM NaCl, 0.005% Tween 20, 1 mM GSH (DTT), 4 C; EMSA: 20 mM HEPES pH 8.2, 50 mM NaCl, 0.05% Triton X-100, 5% glycerol, 4 C, 0.5x T.
The target in another data set is T2, YTHDF3 YTH domain (UniProt Q7Z739 391-585).
T2 sequence: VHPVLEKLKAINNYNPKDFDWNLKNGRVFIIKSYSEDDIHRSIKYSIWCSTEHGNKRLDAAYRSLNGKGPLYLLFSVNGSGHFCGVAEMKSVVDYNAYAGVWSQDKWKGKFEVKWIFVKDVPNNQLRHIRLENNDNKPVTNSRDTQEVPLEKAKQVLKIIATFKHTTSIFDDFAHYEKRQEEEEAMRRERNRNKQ
To be noted: protein: recombinant.

Another data set addresses T3, YTHDF1 YTH domain (UniProt Q9BYJ9 375-552).
T3 sequence: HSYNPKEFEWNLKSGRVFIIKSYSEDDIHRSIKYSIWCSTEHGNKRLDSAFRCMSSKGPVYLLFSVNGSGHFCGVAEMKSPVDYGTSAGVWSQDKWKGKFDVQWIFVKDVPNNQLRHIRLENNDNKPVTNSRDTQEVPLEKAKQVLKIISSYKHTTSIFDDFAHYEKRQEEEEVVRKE
To be noted: protein: recombinant.

Another data set concerns the target T4, YTHDF2 YTH domain (UniProt Q9Y5A9 383-553).
T4 sequence: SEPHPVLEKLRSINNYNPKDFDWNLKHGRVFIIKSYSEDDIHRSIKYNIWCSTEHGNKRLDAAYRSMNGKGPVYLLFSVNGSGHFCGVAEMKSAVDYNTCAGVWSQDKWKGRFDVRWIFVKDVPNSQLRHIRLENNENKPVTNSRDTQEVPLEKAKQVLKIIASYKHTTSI
To be noted: protein: recombinant; tags: N-terminal His6 and GST; label: none.

B1: FAM-17mer m6A RNA probe (ssRNA)
RNA: UUCUUCUGUGGACUGUG
modifications: m6A at position 12
For B1, the binding result with YTHDC2 YTH domain, in the data set with YTHDC1 YTH domain, with YTHDF3 YTH domain and in the data set with YTHDF1 YTH domain was “binds” each time.

B2: unlabeled m6A RNA probe (ssRNA)
RNA: UUCUUCUGUGGACUGUG
modifications: m6A at position 12
With B2, the half-maximal inhibitory concentration (IC50) in the data set with YTHDF2 YTH domain was 115 nM.
